Substitutions are numbered along the chain they refer to. Names may count otherwise. “And” between values parts separate entries of the source, which are not always exact repeats. Identical values can stand only once.

For orientation: EC50 means the midpoint of the concentration-response curve. Low readings indicate an effect from little substance, high ones a need for much substance. In general, koff refers to a measure of how fast the partners let go of each other.

B1: P01500050: P01500001(G28T, D72P)-FLAG3-HIS6 (VHH)
VHH: EVQLVESGGGLVQPGGSLRLSCAASGSTFSGMIMGWYRQAPGKQRELVATVTSHGTTNYADSVKGRFTISRPNAKNTVYLQMNSLRPEDTAVYYCNAHFPGIYWGKGTLVTVSS
notes: also called P0150050
B2: P01500053: P01500001(S30I, I33L, N73P)-FLAG3-HIS6 (VHH)
VHH: B1 VHH with T28G, S30I, I33L, P72D, N73P
notes: also called P0150053
B3: P01500045: P01500001(G26E, I33L)-FLAG3-HIS6 (VHH)
VHH: B1 VHH with G26E, T28G, I33L, P72D
notes: also called P0150045
B4: P01500046: P01500001(N73P)-FLAG3-HIS6 (VHH)
VHH: B1 VHH with T28G, P72D, N73P
notes: also called P0150046
B5: P01500047: P01500001(G26E, G28T, S30I, I33L)-FLAG3-HIS6 (VHH)
VHH: B1 VHH with G26E, S30I, I33L, P72D
notes: also called P0150047
B6: P01500051: P01500001(D72E, N73G)-FLAG3-HIS6 (VHH)
VHH: B1 VHH with T28G, P72E, N73G
notes: also called P0150051
B7: P01500049: P01500001(G26E)-FLAG3-HIS6 (VHH)
VHH: B1 VHH with G26E, T28G, P72D
notes: also called P0150049
B8: P01500048: P01500001(S30I, D72P)-FLAG3-HIS6 (VHH)
VHH: B1 VHH with T28G, S30I
notes: also called P0150048
B9: P01500044: P01500001(S30I, D72E, N73G)-FLAG3-HIS6 (VHH)
VHH: B1 VHH with T28G, S30I, P72E, N73G
notes: also called P0150044
B10: P01500043: P01500001(G28T, I33L, D72E)-FLAG3-HIS6 (VHH)
VHH: B1 VHH with I33L, P72E
notes: also called P0150043
B11: P01500052: P01500001(V51R, D72E)-FLAG3-HIS6 (VHH)
VHH: B1 VHH with T28G, V51R, P72E
notes: also called P0150052
B12: P01500042: P01500001(G28T, S30I)-FLAG3-HIS6 (VHH)
VHH: B1 VHH with S30I, P72D
notes: also called P0150042
B13: P01500041: P01500001(D72P, N73G)-FLAG3-HIS6 (VHH)
VHH: B1 VHH with T28G, N73G
notes: also called P0150041
B14: P01500054: P01500001(I33L, N73P)-FLAG3-HIS6 (VHH)
VHH: B1 VHH with T28G, I33L, P72D, N73P
notes: also called P0150054
B15: P01500083: P0150001 with A24V, S27L, M32I, N76D (VHH)
VHH: B1 VHH with A24V, S27L, T28G, M32I, P72D, N76D
B16: P01500082: P0150001 with A24V, S27L, M32I (VHH)
VHH: B1 VHH with A24V, S27L, T28G, M32I, P72D
B17: P01500019: 2HF09(Q1E, Q5V, A14P, G26E, G28P, I51V, G54H, D72E, N73G, L79Y, K83R, Q108L)-HIS6 (VHH)
VHH: B1 VHH with G26E, T28P, P72E, N73G
notes: Entry includes the tag; also called P0150019; P01500001[G26E, G28P, D72E, N73G]
B18: P01500059: P01500001(G26E, D72E)-FLAG3-HIS6 (VHH)
VHH: B1 VHH with G26E, T28G, P72E
notes: also called P0150059
B19: P01500058: P01500001(G26E, G28P)-FLAG3-HIS6 (VHH)
VHH: B1 VHH with G26E, T28P, P72D
notes: also called P0150058

T2 sequence (P35846 25-232 limits assumed): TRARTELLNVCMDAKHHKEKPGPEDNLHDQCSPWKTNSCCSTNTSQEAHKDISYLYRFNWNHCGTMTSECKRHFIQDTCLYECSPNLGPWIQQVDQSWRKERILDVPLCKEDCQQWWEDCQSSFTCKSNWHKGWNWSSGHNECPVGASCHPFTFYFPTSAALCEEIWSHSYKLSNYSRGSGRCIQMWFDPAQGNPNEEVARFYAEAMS
T1 sequence (P15328 25-234 limits assumed): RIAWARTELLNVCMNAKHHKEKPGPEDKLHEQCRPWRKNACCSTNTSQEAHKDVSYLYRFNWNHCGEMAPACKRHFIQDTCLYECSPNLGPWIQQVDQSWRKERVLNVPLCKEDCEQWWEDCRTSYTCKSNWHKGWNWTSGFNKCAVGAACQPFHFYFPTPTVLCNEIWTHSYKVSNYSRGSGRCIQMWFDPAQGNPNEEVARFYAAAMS

The first experiment has as its target T1, human folate receptor alpha expressed on cells (transfected HEK293T, HeLa, MCF7, MDA-MB-231) (human, UniProt P15328 25-234).
T1 construct: HEK293T transiently transfected with human FOLR1; also called native human FRα; cell-expressed human FOLR1
Description: flow cytometry on HeLa cells, anti-Flag detection. As for the experimental part:
EC₅₀ values are found in Table 9. Detection of VHH cell binding was done through anti-Flag M2 mIgG1 followed by anti-mFc-PE in flow cytometry. Results are depicted as mean fluorescence intensity ^{∘}MFI).
(§1) Off-rates of purified variants were determined to human, mouse, and cynomolgus FRα in BLI. In addition, binding of the affinity optimised variants to cell-expressed human FRα on HeLa cells was determined by flow cytometry ^{∘}FIG. 10 B).
On the technique in general: Flow cytometry measures light scatter and fluorescence of single cells or particles in a stream.
In turn, B1 registered a concentration for a half-maximal effect (EC50) of 3.61 nM and an MFI top of 62500 MFI.
In turn, B2 returned a 50% effective concentration (EC50) of 2.63 nM and an MFI top of 51200 MFI.
The matching figures for B3: 4.71 nM and 58900 MFI.
Regarding B4, the EC50 worked out at 6.91 nM and the MFI top was found to be 50800 MFI.
The matching figures for B5: 3.19 nM and 59100 MFI.
The matching figures for B6: 3.31 nM and 61000 MFI.
For B7 the same measures were 10.9 nM and 46600 MFI.
Take B8: a half-maximal effect (EC50) was put at 2.46 nM and the MFI top was found to be 59800 MFI.
B9 yielded an EC50 of 3.29 nM and an MFI top of 64100 MFI.
The matching figures for B10: 2.4 nM and 60200 MFI.
For B11 the same measures were 4.35 nM and 53900 MFI.
For B12 the same measures were 5.19 nM and 54700 MFI.
Regarding B13, it took 4.2 nM to reach a half-maximal effect (EC50) and the MFI top stood at 63000 MFI.
The molecule B14 yielded an EC50 of 5.18 nM and an MFI top of 55800 MFI.

Another experiment addresses T2, mouse folate receptor alpha (mFRα), recombinant protein (mouse, UniProt P35846 25-232).
T2 construct: Bought recombinant proteins (e.g. biotinylated, Acro Biosystems FO1-M82E9); also called mFOLR1; Ms FOLR1
Description: BLI. In outline:
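Biotinylated human and mouse folate receptor alpha were immobilised on streptavidin biosensors, and off-rates were read by biolayer interferometry, with a 1:1 binding model applied in the calculation. Each variant's koff is expressed as a signed fold change relative to its wild-type VHH, positive as wild-type over variant for a better off-rate and negative as variant over wild-type for a worse one.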
On to B15, for which the koff is 0.0975 s⁻¹ and the “nm (Fold wt)” value is 60.
For B16 the same measures were 0.0618 s⁻¹ and 38.

In the next experiment the target is T3, human folate receptor alpha (hFRα), recombinant protein (human, UniProt P15328 25-233).
T3 construct: Bought recombinant proteins (His-tagged, or biotinylated via Avi-tag, e.g. AcroBiosystems FO1-H82E2, F01-H52H1); also called hFOLR1; huFOLR1
T3 sequence (P15328 25-233 limits assumed): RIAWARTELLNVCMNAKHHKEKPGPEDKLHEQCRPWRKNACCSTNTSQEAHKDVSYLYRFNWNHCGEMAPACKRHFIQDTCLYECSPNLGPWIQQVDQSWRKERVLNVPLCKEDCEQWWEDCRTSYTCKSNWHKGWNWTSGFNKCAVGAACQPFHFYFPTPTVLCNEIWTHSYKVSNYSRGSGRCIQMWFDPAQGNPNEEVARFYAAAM
Description: BLI, Avi-biotinylated FRα. As for the experimental part:
(§2) Purified VHHs ^{∘}100 nM) were analysed for binding to avi-tagged biotinylated FRα protein captured on streptavidin-biosensors via BLI.
as §1
Background: In BLI a coated tip is dipped into the sample, and binding shifts an interference pattern.
Turning to B17, the koff stood at 0.000206 s⁻¹.
The same measure, in the same setting: under B1 stands 0.00128 s⁻¹.
With B2, the koff was 0.000922 s⁻¹ and 0.00105 s⁻¹.
On the same count and under the same terms, next, B3: 0.00187 s⁻¹; B4: 0.00371 s⁻¹ and 0.004 s⁻¹; B18: 0.0019 s⁻¹.
On the same count and under the same terms, under B19 stands 0.00285 s⁻¹.
The same measure, in the same setting: next, B5: 0.00119 s⁻¹.
As for B6, the koff was 0.000474 s⁻¹ and 0.000555 s⁻¹.
The same measure, in the same setting: under B7 stands 0.00648 s⁻¹.
Still for that read-out and setting: under B8 stands 0.00147 s⁻¹; under B9, 0.000555 s⁻¹.
As to B10, the koff was 0.000639 s⁻¹.
The same measure, in the same setting: under B11 stands 0.0018 s⁻¹; under B12, 0.00338 s⁻¹; under B13, 0.00113 s⁻¹.
For the molecule B14, the koff came to 0.000937 s⁻¹.

The target in the next experiment is T2, mouse folate receptor alpha (mFRα), …. Description: BLI, Avi-biotinylated FRα. As for the experimental part:
as §2, §1
With B17, the koff was 8.33e-05 s⁻¹.
The same measure, in the same setting: next, B1: 0.000168 s⁻¹.
The same measure, in the same setting: next, B2: 0.000167 s⁻¹ and 0.000214 s⁻¹.
Take B3: the koff was 0.00036 s⁻¹.
The same measure, in the same setting: under B4 stands 0.000777 s⁻¹ and 0.000731 s⁻¹.
Same read-out and setting: next, B18: 0.000292 s⁻¹; B19: 0.000484 s⁻¹.
Same read-out and setting: under B5 stands 0.000219 s⁻¹; under B6, 4.99e-05 s⁻¹ and 8.33e-05 s⁻¹.
With B7, the koff stood at 0.000826 s⁻¹.
On the same count and under the same terms, under B8 stands 0.000142 s⁻¹.
As to B9, the koff came out at 0.000126 s⁻¹.
On the same count and under the same terms, next, B10: 0.000114 s⁻¹; B11: 0.000246 s⁻¹.
The same measure, in the same setting: under B12 stands 0.00038 s⁻¹; under B13, 0.000191 s⁻¹; under B14, 0.000147 s⁻¹.

In the next experiment the target is T3, human folate receptor alpha (hFRα), …. Description: BLI, purified VHH. The essentials: (§3)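 Off-rates to folate receptor alpha from human, mouse and cynomolgus were measured by biolayer interferometry. The VHH proteins tested were made with a flag3-His6 tag in TG-1 E. coli at 0.5 L scale and isolated from the periplasm on Ni Sepharose FastFlow columns.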
For the molecule B1, the koff worked out at 0.00105 s⁻¹.
Take B2: the koff is 0.000943 s⁻¹.
Same read-out and setting: next, B3: 0.00157 s⁻¹; B4: 0.00361 s⁻¹; B18: 0.00204 s⁻¹.
On the same count and under the same terms, under B19 stands 0.00318 s⁻¹; under B5, 0.000971 s⁻¹.
On the same count and under the same terms, next, B6: 0.000546 s⁻¹; B7: 0.00569 s⁻¹.
With B8, the koff was 0.0013 s⁻¹.
On the same count and under the same terms, next, B9: 0.000464 s⁻¹; B10: 0.000534 s⁻¹.
With B11, the koff was 0.00146 s⁻¹.
Still for that read-out and setting: next, B12: 0.00274 s⁻¹.
The same measure, in the same setting: under B13 stands 0.00094 s⁻¹.
Same read-out and setting: under B14 stands 0.000968 s⁻¹.

The target of another experiment is T4, cynomolgus folate receptor alpha, recombinant (cynomolgus, UniProt A0A2K5U044 25-233).
T4 construct: also called cyFOLR1; cynomolgus FRα
T4 sequence (A0A2K5U044 entry or part of it): as the sequence (P15328 25-233 limits assumed) above, with I2T, W4R, R37K, A146P, H171Y counted along it
Kind of experiment: BLI, purified VHH. In outline: as §3
As for B1, the koff was determined as 0.00109 s⁻¹.
Still for that read-out and setting: under B2 stands 0.000167 s⁻¹; under B3, 0.00036 s⁻¹.
On the same count and under the same terms, under B4 stands 0.0036 s⁻¹; under B18, 0.000292 s⁻¹; under B19, 0.00369 s⁻¹.
On the same count and under the same terms, under B5 stands 0.000219 s⁻¹; under B6, 0.00078 s⁻¹.
Regarding B7, the dissociation rate constant (koff) worked out at 0.000393 s⁻¹.
The same measure, in the same setting: under B8 stands 0.00133 s⁻¹.
B9: the koff came out at 0.000737 s⁻¹.
Same read-out and setting: under B10 stands 0.000428 s⁻¹; under B11, 0.00281 s⁻¹; under B12, 0.00038 s⁻¹.
Regarding B13, the koff came out at 0.00014 s⁻¹.
On to B14, for which the koff came to 0.000147 s⁻¹.

The target of a further experiment is T2, mouse folate receptor alpha (mFRα), …. Kind of experiment: BLI, purified VHH. The essentials: as §3
Consider B1, for which the koff was found to be 0.000168 s⁻¹.
Still for that read-out and setting: under B2 stands 0.000191 s⁻¹.
With B3, the koff is 0.00036 s⁻¹.
Same read-out and setting: under B4 stands 0.000754 s⁻¹; under B18, 0.000333 s⁻¹; under B19, 0.000484 s⁻¹.
Still for that read-out and setting: next, B5: 0.000219 s⁻¹; B6: 8.41e-05 s⁻¹.
Same read-out and setting: under B7 stands 0.00105 s⁻¹; under B8, 0.000142 s⁻¹.
Consider B9, for which the koff was found to be 0.000126 s⁻¹.
On the same count and under the same terms, under B10 stands 0.000114 s⁻¹.
The same measure, in the same setting: next, B11: 0.000246 s⁻¹; B12: 0.00038 s⁻¹.
Still for that read-out and setting: under B13 stands 0.00014 s⁻¹; under B14, 0.000147 s⁻¹.

Source of the values: patent publication US20250304677A1 (VIB VZW, published 2025).
